Results published in the supplement of paper PMC10567573.
± gives the standard deviation.

Assay: protein stability index of a GFP-peptide fusion (GPS, HEK-293T) (PSI 1-6); higher = more stable
[1] = treatment: DMSO, c terminus: a fixed tail appended
[2] = treatment: MLN4924 1 uM, 8 h, c terminus: a fixed tail appended
[3] = treatment: DMSO, c terminus: native
[4] = treatment: MLN4924 1 uM, 8 h, c terminus: native
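Also: 24-mer peptide tiles fused after GFP, lentivirally expressed, FACS-sorted into six equal bins by GFP/DsRed ratio, decoded by Illumina sequencing, PSI is the read-weighted mean bin number.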

Sequence | protein stability index [1] | protein stability index [2] | protein stability index [3] | protein stability index [4]
LIDVCKYLGSLQYRVWKKMLASVE [TRIM35] | 2.75 ± 0.43 | 2.25 ± 0.33 |  | 
EKEEDHAPEFIKVRENLRRIATLT [FAM107A] | 2.58 ± 0.56 | 2.81 ± 0.6 |  | 
DLHKMNHVTPPNVSLGATGGPPAG [JUNB] | 4.38 ± 0.19 | 4.39 ± 0.078 |  | 
SSIIHEIDSILGNKPYSKKDYRS [KCNAB2] |  |  | 3.02 ± 0.37 | 3.53 ± 0.28
SESGSLGNSSGSDVTSLSSQLPDT [ISL2] | 5.43 ± 0.056 | 5.41 ± 0.14 |  | 
LSSLGENPQRQGLLKTPWRAASAM [GCH1] | 2.8 ± 0.23 | 3.17 ± 0.13 |  | 
AALHGLEETKKLANKYLVEDVLLL [KLHL14] | 2.42 ± 0.22 | 2.55 ± 0.56 |  | 
QENESLFTFLGKKCVTMSSAVVQL [WASL] | 2.29 ± 0.34 | 2.32 ± 0.039 |  | 
LDLSSSSQMSPLSLYGENSNSLSS [ATF6] | 4.01 ± 0.19 | 3.92 ± 0.26 |  | 
QQYQSQAKQLFRKLNEQSPTRCTL [SEC22B] | 3.46 ± 0.073 | 3.44 ± 0.27 |  | 
SPESESDHEHEEADLELSLPECLE [GNAS] | 5.4 ± 0.38 | 5.57 ± 0.26 |  | 
PHQTSKMENLPGLASGPGKYMPHL | 3.44 ± 0.23 | 3.65 ± 0.076 |  | 
YYAKRNALRAAEVWMDDFKSHVYM [GALNT9] | 2.24 ± 0.44 | 2.12 ± 0.26 |  | 
PMKSAPVMLTLSDSKHVVLPVDDD [RBBP5] | 5.08 ± 0.12 | 5.07 ± 0.08 |  | 
IVSQKQMSDRRENDMSPSNNVVPI [RAB11A] | 4.34 ± 0.13 | 4.54 ± 0.14 |  | 
TTYDRRSSQERKFMEERELLGQDE [RSPH3] | 5.34 ± 0.2 | 5.39 ± 0.23 |  | 
KKRRMGTYSLVPKKKTKVLKQRTV [EHMT1] | 3.27 ± 0.22 | 3.82 ± 0.4 |  | 
PAAKPDPDGGRADEWACELRLFGR [P3H4] | 3.47 ± 0.23 | 3.36 ± 0.33 |  | 
VHTKEQILELLVLEQFLAILPKEL [ZNF396] | 3.22 ± 0.74 | 2.43 ± 0.63 |  | 
SASDGSSFVVARYFPAGNVVNEGF [GLIPR2] | 2.58 ± 0.29 | 2.58 ± 0.35 |  | 
TEDFWRMLWEHNSTIVVMLTKLRE [PTPRD] | 2.21 ± 0.25 | 2.23 ± 0.27 |  | 
VMYRIGCLRDDVVFFIYLYQRWIY [CLPTM1] | 2.93 ± 0.66 | 2.71 ± 0.32 |  | 
ELKCPVCGSFYREPIILPCSHNLC [TRIM9] | 4.1 ± 0.29 | 4.12 ± 0.32 |  | 

Sequence | protein stability index [1] | protein stability index [2] | protein stability index [3] | protein stability index [4]
TLTELRRTVQSLEIDLDSMRNLKA [KRT18] | 3 ± 0.5 | 3.06 ± 0.51 |  | 
QGSLSNTYLSKVDPDGKKIKQIQQ [FBXO33] | 4.28 ± 0.31 | 4.34 ± 0.18 |  | 
TGGSADLFGGFADFGSAAASGSFP [CLINT1] | 3.69 ± 0.35 | 3.62 ± 0.24 |  | 
QFQEALEELAKKRFKDKSSEEAVR [TPPP] | 3.49 ± 0.38 | 3.64 ± 0.39 |  | 
VDEYFRQPVVDTFDIRILMAKSVK [CARM1] | 2.47 ± 0.46 | 2.64 ± 0.63 |  | 
MVVKTFMDMDQDSEEEKELYLNLA [PDS5B] | 2.79 ± 0.22 | 3 ± 0.23 |  | 
RESRGSTRGKRESESRGSSGRVKR [USP39] | 5.14 ± 0.32 | 5.24 ± 0.33 |  | 
TLRQKAEADKNDKAVKDLVVLLFE [HSP90AB1] | 3.07 ± 0.39 | 3.12 ± 0.27 |  | 
LLRDQFVKALEDFEDLCDRVFSDE [FAM9B] | 2.97 ± 0.29 | 3.17 ± 0.38 |  | 
DQPMGGWEMIRKIGDTSVSYKYTS [LMNB1] | 3.1 ± 0.31 | 3.2 ± 0.28 |  | 
MTPQLFINYKLKSVAHLPWRMLTY [CLPTM1] | 2.57 ± 0.71 | 2.45 ± 0.56 |  | 
VQSIELQRPRFITSGGSNIIYVAS [VPS39] | 2.35 ± 0.44 | 2 ± 0.22 |  | 
AGPAGTGTPSLLRGKRGGHATNYR [EMID1] | 4.72 ± 0.49 | 4.59 ± 0.22 |  | 
SDDFCTFQMVLEGGVCCTVTLNFN [GFOD1] | 2.79 ± 0.48 | 3.02 ± 0.29 |  | 
PRTRARLGANEVLLVVGGFGSQQS [KLHL12] | 2.17 ± 0.12 | 1.97 ± 0.58 |  | 
PRLKEDQPWMVIEGIRQTEYTLTG [FSD1] | 3.18 ± 0.34 | 3.12 ± 0.19 |  | 
ARQAACCVARPGTPSLLRFALASL [ZSWIM9] | 2.33 ± 0.17 | 2.43 ± 0.32 |  | 
EKQELQELNDRFANFIEKVRFLEQ [PRPH] | 3.08 ± 0.17 | 3.29 ± 0.34 |  | 
KPPMMPQAQPAIPRPNRLFLRQLR [C2CD2L] | 3.22 ± 0.17 | 3.43 ± 0.42 |  | 
YFTDTDELQLEAANETYENNFDNL [ATF6] | 4.66 ± 0.14 | 4.337 ± 0.033 |  | 
CRAPPPEARGIRAPPLPDSPQPLA [FCHO1] | 4.2 ± 0.6 | 4.3 ± 0.22 |  | 
VAGGVAVAAIALILGVAFLVRKK [CEND1] |  |  | 4.02 ± 0.29 | 4.16 ± 0.097
SGLGYIAGSKVKDMAGDWHWALRV [SPNS1] | 2.64 ± 0.74 | 2.38 ± 0.3 |  | 

Sequence | protein stability index [1] | protein stability index [2] | protein stability index [3] | protein stability index [4]
YQQLEDDKLSQKSSSSKLSRSPLK [EPB41L3] | 4.94 ± 0.6 | 5.04 ± 0.28 |  | 
LCEKFDYLYGILEERKNEMTQVIT [TRIM55] | 2.7 ± 0.15 | 2.88 ± 0.4 |  | 
GFGVLRLDADAAQRVVYLEGCGPP [TSPAN10] | 2.88 ± 0.33 | 2.65 ± 0.13 |  | 
GVCIRRCTVLRDARIRSHSWLESC [GMPPB] | 2.31 ± 0.35 | 2.15 ± 0.12 |  | 
GIELMEVDPIGHVYIFATCLGLSY [MAGEA6] | 3.02 ± 0.66 | 2.92 ± 0.41 |  | 
LKLMVNVCGHTLCESCVDLLFVRG [MNAT1] | 3.35 ± 0.92 | 3.27 ± 0.44 |  | 
EVTASQEARGLRLSDLEDLEEEEE [IRX6] | 5.73 ± 0.34 | 5.64 ± 0.14 |  | 
VPQPRPPGARTRAGAARVARWRRL [FBXO33] | 4.39 ± 0.42 | 4.76 ± 0.21 |  | 
ATAFSKLKPESSQQPGQDALAVKA [ZBED1] | 4.8 ± 0.5 | 5.21 ± 0.12 |  | 
TKQRIQDQKVPYIFRDNQWVGFDD [CHIT1] | 3.49 ± 0.47 | 3.69 ± 0.4 |  | 
CYETLPRGQCLLYNWEEERATNHL [SPAG8] | 2.92 ± 0.16 | 3.09 ± 0.23 |  | 
PCGKYNAMVLELLGPSLEDLFDLC [CSNK1G1] | 2.69 ± 1.2 | 2.21 ± 0.5 |  | 
KNWVKELRQHGPPNIVVAIAGNKC [RAB22A] | 2.29 ± 0.23 | 2.47 ± 0.21 |  | 
CEPPSYRPMHHEDFKEDLKKFRTK [CDC25A] | 4.89 ± 0.31 | 4.93 ± 0.28 |  | 
CNPLRYSVLMGHGVCMGLVAAACA [OR10K2] | 3.37 ± 0.59 | 2.83 ± 0.3 |  | 
KHAVVNLINYQDDAELATRAIPEL [CTNNB1] | 3.66 ± 0.23 | 3.64 ± 0.38 |  | 
TIIFTAAREGRETLKCLSHHVADA [TOR1AIP2] | 2.42 ± 0.13 | 2.62 ± 0.2 |  | 
TASDGGDPLRSGTVLVSVTVFDAN [PCDHGA10] | 2.31 ± 0.52 | 2.13 ± 0.091 |  | 
WQPAVPLMHMLHLSGALDFPRQS [SPATS1] |  |  | 2.9 ± 0.38 | 2.73 ± 0.48
GAVAPPVSGDLTKEDIDLIDILWR [NFE2L1] | 3.16 ± 0.17 | 3.67 ± 0.53 |  | 
QSGCLYRLRALGERHTMDLTVEGF [TMEM120A] | 2.12 ± 0.55 | 2.27 ± 0.2 |  | 
YIGSIMKGGAVAADGRIEPGDMLL [DVL3] | 2.34 ± 0.22 | 2.57 ± 0.43 |  | 
RARVKEKFSPEAFTEQLYRYVTKL [ALG2] | 2.36 ± 0.48 | 2.05 ± 0.46 |  | 

Sequence | protein stability index [1] | protein stability index [2] | protein stability index [3] | protein stability index [4]
RGTPPRRHSFRKHLYLLRGLPGSG [N4BP2L1] | 2.64 ± 0.3 | 2.94 ± 0.21 |  | 
TEEDDGFVDILESDLKDDDAVPPG [CDC25B] | 5.46 ± 0.27 | 5.4 ± 0.12 |  | 
TLSFIVDGQYMGVAFRGLKGKKLY [SPSB1] | 2.27 ± 0.46 | 2.36 ± 0.36 |  | 
KVPIAQDELALSLGYAASLEASVQ [C2CD2L] | 3.65 ± 0.33 | 3.64 ± 0.34 |  | 
GKSPVNMVTVAMVAGQCEFAHILH [ZNF649] | 2.63 ± 0.63 | 2.34 ± 0.62 |  | 
LRLEEPRMDFAAKLMKNIRFPLMT [KLHL13] | 2.31 ± 0.29 | 2.43 ± 0.37 |  | 
NRLLQEENRTLQVLRAEHRGFQEE [CBY2] | 4.43 ± 0.21 | 4.46 ± 0.12 |  | 
PILAPRIFGSNKWTTEQQQRFHEI [ARL6IP1] | 3.07 ± 0.25 | 3 ± 0.22 |  | 
QSLEGDTTKGTSEMSEKRGPTSSN [MLH1] | 5.54 ± 0.18 | 5.43 ± 0.28 |  | 
EHYRVQTQQTGTVRFDGYVIDGAT [FEM1B] | 3.64 ± 0.3 | 3.88 ± 0.26 |  | 
VSISISGSSRPCLDFLQEVTRQPR [ASB7] | 1.93 ± 0.48 | 2.05 ± 0.3 |  | 
HISNQKMPTGPPEDRLSLKFLPSS [DRICH1] | 3.21 ± 0.14 | 3.44 ± 0.12 |  | 
QDQPSEAATGGATLAQTISEAAIG [HDAC6] | 5.09 ± 0.23 | 5.35 ± 0.15 |  | 
KQRSVCTWGKNKPGIGAVILKRFC [FAN1] | 1.99 ± 0.31 | 2.02 ± 0.15 |  | 
SSSRNSHLVQHQHPNSRKSSAGGA [ZNF8] | 4.71 ± 0.43 | 4.83 ± 0.23 |  | 
TWEQTFQELIQEAKPRATWTLKLD [RTP4] | 2.02 ± 0.24 | 2.25 ± 0.33 |  | 
EAFRLKQQLHARYVLNLLYETKKH [PPEF2] | 2.5 ± 0.61 | 2.36 ± 0.33 |  | 
RDSYGGPPRREPLPSRRDVYLSPR [RBMX] | 3.69 ± 0.36 | 3.97 ± 0.2 |  | 
CILLSALGYLLLGAATNVFLFVLA [MFSD9] | 2.53 ± 0.45 | 2.77 ± 0.27 |  | 
INVSKGINHLLKSPFSVHPKTGRI [PRIM1] | 2.62 ± 0.5 | 2.65 ± 0.37 |  | 
